Assay results reported in the DeepSol protein solubility set.

Assay: soluble on expression in E. coli; label from the status in PepcDB or PDB records

Row | Sequence | soluble on expression in E. coli
1 | MRGSHHHHHHTDPINKDIYQALQQLIPNEKIKVDEPLKRYTYTKTGGNADFYITPTKNEEVQAVVKYAYQNEIPVTYLGNGSNIIIREGGIRGIVISLLSLDHIEVSDDAIIAGSGAAIIDVSRVARDYALTGLEFACGIPGSIGGAVYMNAGAYGGEVKDCIDYALCVNEQGSLIKLTTKELELDYRNSIIQKEHLVVLEAAFTLAPGKMTEIQAKMDDLTERRESKQPLEYPSCGSVFQRPPGHFAGKLIQDSNLQGHRIGGVEVSTKHAGFMVNVDNGTATDYENLIHYVQKTVKEKFGIELNREVRIIGEHPKESLQPSLIS | soluble
2 | MGSDKIHHHHHHMKITNFEQTGLCEIEGILSIENTENIEVSELREILKCANVSFVLEGINRLQSTLICELKASYVQQSQRYVTLKENSFDLPDLRHEDELKAKELLRKAFELYEEMSRLKEGQFKGRPKAENYLYGIPIEDARYILPLACKTNISMAMNGEKLIDFFYLLNDRHYSEIFSDLKKLVLSKLPEKLSLFLSKLKSNYNRKLIENFYKSAFDKISECDNIVLLNSFEDLDLKVGLGAITSTHDKTPSEVMELWGDNATEKAKGVSERVLGYGHESIAEQARTTFGMMCSMVTYHQQIRHRLSENHREALFNIIQDEKREVVVPSTVKESEFYNRFVELTHEFKKFRKYVLKEYGEEKSLNFLLNCDRIKLVISTNARIDCQMLADRICFNAQWEIRELSTKKLEKLRKLSQVLYVKALPSCVFGKCKEGKFTCGKQMIMKNKFA | not soluble
3 | MGSDKIHHHHHHMTERFQQKNISVPDGIWIMKQTWNDVLFAHWPVDVSILRALVPSVLELDTYNGQAWISMLPFMLTNLRARYLPVIPGARAFPELNLRTYVTYKGKPGIYFFSLDADHRLAVLGARTFFHLPYFYADMKSEKNGDAIDYVSKRKNDKEAAFHAAYRPISAPFTAEKDSLDYWLTDDTGSTPLIAISSITKTSIIIRGCCKTPKQKFQSIR | not soluble
4 | MSLDQEQNVSLLVAGDHELLRDAISEILRREGGFSVEVTGSREGVLKQIEERGGFDVILLDLQMPGMSGLDSLREVATSNANGAVAILAGELTRDVVMSAFKAGARGYIPKTLPLRALPIALRLIASGESYVPAWLTNGGGTTQADGPSFDLLPEELQILEEVSDGRTNKQIAFTLNVTEGAIKMKMRAICMKLGAKNRTHAVVIARQHMMLREGHHHHHH | soluble
5 | MEDPVTGPEEVSGQEQGSLTVQCRYTSGWKDYKKYWCQGVPQRSCKTLVETDASEQLVKKNRVSIRDNQRDFIFTVTMEDLRMSDAGIYWCGITKGGLDPMFKVTVNIGPVPT | soluble
6 | TLPKPFIWAEPHFMVPKEKQVTICCQGNYGAVEYQLHFEGSLFAVDRPKPPERINKVKFYIPDMNSRMAGQYSCIYRVGELWSEPSNLLDLVVTEMYDTPTLSVHPGPEVISGEKVTFYCRLDTATSMFLLLKEGRSSHVQRGYGKVQAEFPLGPVTTAHRGTYRCFGSYNNHAWSFPSEPVKLLVTG | soluble
7 | MSLKSNVYYEELAKQNAIKTEFLPPVRGQITDRNGTLLAINDLGFSISIKPYLSIKKSNKGILDKELSELTNLFPDLNASKLAEIYKRNDSYYNQDFIKVVDFIPYDEIISHYSELNLNKTIKIDPVVKRKYPFGKLASHIIGYVGKANLQDVQENEIAKLSNYTGKSGIERYYNDILQGEKGTRVYKVNALNQEVEQLSYTPAMSNDIELTIDIELQSYLTSLFEGNAGAAIIMNVNDGSILAAGSFPEYDLNPFVTGISFKDWDELSNSLDHPFTNKLINGYYPPGSVVKMGVGLSFLNSKNISPSTHYVCNGSIELGGRFFRCWNRSGHGPVDLKHAIKYSCDVYFYNGSLQVGIDQISETLSRIGFGVKTGVDLPSEFVGTLPSKEWKMQRYRQSWFQGDTLNTAIGQGNFLATPMQIARYTAQIAKSGEVIPHFLKSIENNNTTIENQMDENKKEIFTLFEKSQLPYIRDAMYAVANEQGGTSYRYLHNLDVKVAAKTGTAQVVGFSQTDKNRVDEKQFEYYTRSHAWLTSYAPYSKPKYVVTVLLEHGGRNITSGATVAKIYQKMIELGYFKEGHHHHHH | soluble
8 | MVDAGLVLAAGFSRRFRGLLGVHKVAAGVRGYPLLCYPVTSLALAGVDRVFVVASQFNLNVVELVLGHCPFRVSGVLISSLSTLGNGFSLVEGLREAGLRGSRCLAVSMADHVYPPSIARRLIEAGCNTLGVDSRPRYIEVGEATHVSLEPGAGVRLGKDVEGCCVDIGIHTIEAGIASIGCIDLPPRGEASVSQLITCAARKGYTFKLVDVDGGPWMEVDSPEDLERLLQGDGLEVLEAVRSEWGFLEHHHHHH | not soluble
9 | MAHHHHHHMAARTDDPRLLSLFSAQREEDADIVIIGFPYDEGCVRNGGRAGAKKGPAAFRFFLQRLGSVNNLELNVDASHLKLYDAGDITASTLEEAHEKLESKVFTVLARGAFPFVIGGGNDQSAPNGRAMLRAFPGDVGVINVDSHLDVRPPLQDGRVHSGTPFRQLLEESSFSGKRFVEFACQGSQCGALHAQYVRDHQGHLMWLSEVRKKGAVAALEDAFGLTGKNTFFSFDVDSLKSSDMPGVSCPAAVGLSAQEAFDMCFLAGKTPTVMMMDMSELNPLVEEYRSPRVAVYMFYHFVLGFATRPKPKAEN | soluble
10 | MMDKNQLEQEFHKAMLNIYQEALNLPQPYKATRFLQIVNEFGGKEAADKLLSTGEKKTQTGFTELILSGGGVHALKYSMEYLVLQKPWCDLFTEEQLAVARKRLERVGFVFPK | not soluble
11 | MGSDKIHHHHHHMLEQSIEAFKACVNDWLSAIAQLGEKPNRGNLHRFAYRAIRDKYPQLHSNVVQDAMNLAIEIYRSWLKNGGEFPKFRSDVIYFKGVDVRIENNGLVVPLMGRRVYLPLYVPKKYKKYLQYKHGRVIIKRVDKDWYALVSVNVPEKEPIKPVGTIGVDLGYYNLLVASDEKGRVVMRVQGDILIRHKEHMERLTARRQERLMKKFGIYARTNHKDRRFVNDLNHKIAKALVLKAKQLNRAIVLEKLKGLKKQRRPKLLRKILHLWSYADLIAKIVYKAKLYGVPVIFVSPRGTSKTCSNCGYYVRTFKDDRVFRCPKCGFVADRDYNASINIAKKGLEELRKRTFLPTLKDEASSPQGW | not soluble
12 | MRNICFVACMLFCLTSAVGKTPGNTRYLSIADSILSNVLNLYQTNDGLLTETYPVNPDQKITYLAGGTQQNGTLKASFLWPYSGMMSGCVALYKATGNKKYKKILEKRILPGMEQYWDNSRLPACYQSYPTKYGQHGRYYDDNIWIALDYCDYYQLTHKPASLEKAVALYQYIYSGWSDEIGGGIFWCEQQKEAKHTCSNAPSTVLGVKLYRLTKDAKYLEKAKETYAWTKKHLCDPTDHLYWDNINLKGKVSKEKYAYNSGQMIQAGVLLYEETGDEQYLRDAQQTAAGTDAFFRTKADKKDPTVKVHKDMAWFNVILFRGLKALYKIDKNPAYVNAMVENALHAWENYRDENGLLGRDWSGHNKEQYKWLLDNACLIEFFAEIAAALEHHHHHH | not soluble
13 | MAHHHHHHMSAAGRLIRIRKKSKWIDRRSKRIPHNGKDVWQFGEQPSCALCHVRFRFKQDYEAHKESELHQNRLRWVETMKWWEEIGEPHHQQHAASEWEWFRQRVLPAKAAAMGLSEEDAARELRRAVMHETPRWYSRIQPPNARSEIKEPRDQRWPSSPKW | not soluble
14 | MGSDKIHHHHHHMPDGNQSLTVTVLSAIAEIGAEEWDGCAGSHNPFIRHAFLLAMEHSGSATAQTGWTPRHLAVRDAEGRLLAAAPLYLKSHSFGEYVFDWSWAQAYERAGGRYYPKLQCAVPFTPVTGPRLLVRPGEDGPRLRRVLAASMVDLARRLGASSVHVTFPSGQEYEGLGEVGYLQRLGSQYHWSNQGYQSFDDFLGQLSSRKRKQIRKERDAVARSGVRITTLVGTEVKSRHWDVFHAFYESVVDRKWGRAYVNRAFFEELSASNLAEAVVLVWAEDDGEPLGAAFNMLGKDTLYGRTWGGGRHVDFLHFEACYYRALDFAIAHGLARVEAGAQGEHKVSRGYLPTPTYSAHWIADAALAEPVARYLAHERAQVAEDMADQTEEGPFRKA | not soluble
15 | MGSDKIHHHHHHMKKIAIFLPDLRAGGAEKVALLLSNEFVQKGCAVDVILCTAHGEFLSELDTRINVVDLKSPRLRNAFFPLLRYLKAERPDVLLALMWPLTLLAVTAFKFAKLPGRVVVSDHTTFSQAPLLKKKSTRIFFKLSLPMVYSFANARLAVSEGVANDLATLGNIKRSSITVLHNPVSSDTMRFTKEQNEESWQGFSGKKIVAVGALKWEKDYPTLLKAFALLLKKENAYLSIVGQGTLLSELEAIAEQLGIRKQVNFAGFSTMPSAWMASADLLVLSSSCEGFGNVIVESLDVGTAVVSTDCKSGPREILCDGKYGKLVPVGDVDALAQAMVESLNEQHDMDALKLRAAKFSVDKIAKQYLEVFR | not soluble
16 | MSVTVEQEAYEMPADNKKVMLKIEEVHLHSCGVFSNVYKGILREPYEKKIAIKKSWPEKGERNFEFIFLTGRERAKHKNVIHMIFAFSHSYDTKVCESYVFDFMPNTLAEVIRQKLTDLDIRLYTWQIFSGLKYLEEHKVVHRDLKPVNILVDHDTAFLKISDFGSAKIIVKGKANNFYQVTRFYRPPELLMKAMEYNSTVDVWSAGCIMAEMVKRHVVFPGRDSAHQLKLYCRCFGAPNEQDISAMKGEKLEKEYWKFTKGFGLQRLVNDISPDQLQFIKRILVYAPEKRLRGKQLLQDDFFRPLFKAGAVRHNGQKISDVITAADYKRAAENEESSACRLAQLVKTDNKDLGIPYCEKSNSYENVYARRSTLIPKEQKMARDNKSKEDSSDDRRVAPSSGEAPSAPGKRSESNKTAAIAKKSTMKSVMNAPPPRQKPE | not soluble
17 | MAIDSKPHDDLQLFKTNLHPCGYWPDRWASDLVMDPNDPRLGAIYPQTLAWGFRRSGNLLYRPHCEHCNACVPVRVNVNAFVPNRSQRRCLARNATLVTRIVPAERNAEQLSLYRRYLHQRHPDGGMDGHGAIEFDQFLIGPWGYGRFMEIREPATNGTPGQLLAVAVTDLTHQALSAVYTFYEPNAAARGLGTLAILHQIHWAQREQRPYLYLGYWIKDHFKMDYKRRFQKLEIYDGYRWRPFSTTYPTTHTLLEHHHHHH | soluble
18 | MGSDKIHHHHHHMSSDSVIRVSNLGKRYEIYAQPKDRLKQMVMPRLKRMIGMHPPEYFREFWALRGVSFEVRRGETVAIIGQNGSGKSTLLQLVCGTLFPTNGDIQVKGRIAALLELGAGFNPEFTGEENIYLSGLLYGISEDELRNRFDSIVEFAEIGEFISQPVKTYSSGMYVRLAFAIAAHVDADMLVVDEALSVGDVRFTQKCMRFLREFQKTGTLLFVSHDVGAVTSLCSRAIWLNQGVLKMDGPAKETVEAYLAEQHALDRGQRGDVVQLAKAREKVAKQPAKAANPPVVDVVDQRWEALRANGSGTRIEVFEFMPDSSESEFGARGATIERVALRNEAGEDLPIVQGGELVDLYIESRSHQALAGLIFGFYLKDRLGQRLFGDNTFMTYADREVRSQAGDTHIARFRFRMPIMPVGAYSFDVAIATGNQHDHTQQHWIHDALSMRAVDSTMRHGLVGIPMLEIAISKEG | not soluble
19 | MGSDKIHHHHHHMNLRQLEYFVTLSETLSFTKTAQKFFISQTAVTKQIKLLENTLDTKLFNRNKHYVELTPAGNVFLMEAKAILLRVEEATERVHLTTIGFVGLLRIGFIKGYEKTAFSDLIFQLYNKYPNISITFFRGTESELYEKVLNSELDIVFNSVKPKNIDKTLEMKLIDKYPLKVVVHPTHPLAARKSVRFEELRGETIFKYNDGQDIEVTLLMVSANMGIAVMPSYCVRYLSQSQNLMIIAVENNNFYVDIAAVWNKENNNPALLRVLQIIKEAEQ | not soluble
20 | MIKPALLDKKIEKPHSWEDIPHGEWICELIQSRLDEWCPKLFGYHMLKIGGLSAELDSRFCNIKHQVNLDNKNSLRNITAELPQLPFLEKSIDACVLAHQLDYSSDPHQLLREIDRVLIGDGYVILTGFNPMSAIGLASLFPWRKNNLPWSGRMFTPHRIKDWLSVLNFEVVYSDCFALAPLTRYRTMWTWFEGLGGDAVKPISGIYFIVARKRTYPLRPIKSAWKKKPKLAPISVAQTRQGKMKSD | not soluble
